These results are taken from US7271238.

In this experiment the target is amylin receptors (rat basal forebrain membranes, containing the nucleus accumbens and surrounding regions) (rat). The experiment in a line: competition radioligand binding, displacement of 125I-rat amylin from rat basal forebrain membranes. A general note: Loss of bound radioactivity is the signal in a displacement assay; it reports binding, not function.

Take 28Pro-human-Amylin (peptide): the IC50 (in general, the concentration that inhibits the measured activity by half) worked out at 0.015 nM.

B1: 25,28,29Pro-h-Amylin (peptide)
peptide: KCNTATCATQRLANFLVHSSNNFGPILPPTNVGSNTY
modifications: 2,7-disulfide; made on methylbenzhydrylamine resin (C-terminal amide not spelled out)
On to B1, for which the IC50 came out at 0.01 nM.
